Test results: publication PMC4522657, “Identification of a DYRK1A Inhibitor that Induces Degradation of the Target Kinase using Co-chaperone CDC37 fused with Luciferase nanoKAZ” (Scientific Reports, 2015)

Assays:
Test in all cases: ELISA; Lysates (HENG buffer: 50 mM HEPES-KOH pH 7.9, 150 mM NaCl, 20 mM Na2MoO4, 2 mM EDTA, 5% glycerol, 0.5% Triton X-100) of 293T cells stably expressing CDC37-nanoKAZ, nanoKAZ-HSP90β or nanoKAZ and transiently transfected with 3xFLAG-tagged kinases; 3xFLAG-kinase captured on 96-well plates coated with anti-FLAG M2, 4 °C for 3 h, washed; bound nanoKAZ fusion read by luminescence (Imax) with bis-coelenterazine, as …
Conditions in all cases: partners not purified
3xFLAG-tagged DYRK4 = molecular target: T1, 3xFLAG-tagged DYRK4 (UniProt Q9NR20 1-520)
T1 construct: DYRK4; residues of F2A may remain at the C-terminus (surmise); also called 3xFLAG-DYRK4; source: 293T cells stably expressing CDC37-nanoKAZ, transiently transfected (pcDNA5/FRT/TO), in lysate
T1 sequence (looked up): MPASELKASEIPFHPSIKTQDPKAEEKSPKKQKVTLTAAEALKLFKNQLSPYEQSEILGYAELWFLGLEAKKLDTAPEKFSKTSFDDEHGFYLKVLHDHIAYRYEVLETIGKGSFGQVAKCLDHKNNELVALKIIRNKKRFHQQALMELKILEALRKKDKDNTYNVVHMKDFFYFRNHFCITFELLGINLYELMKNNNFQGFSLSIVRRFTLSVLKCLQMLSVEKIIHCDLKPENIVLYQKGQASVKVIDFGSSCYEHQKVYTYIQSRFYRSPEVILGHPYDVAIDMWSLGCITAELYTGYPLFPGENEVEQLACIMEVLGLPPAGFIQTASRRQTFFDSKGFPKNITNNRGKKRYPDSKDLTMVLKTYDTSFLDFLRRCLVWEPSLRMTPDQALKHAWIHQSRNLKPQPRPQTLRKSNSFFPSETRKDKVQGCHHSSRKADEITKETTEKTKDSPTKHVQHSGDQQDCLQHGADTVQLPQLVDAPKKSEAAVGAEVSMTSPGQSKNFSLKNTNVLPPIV

3xFLAG-DYRK1A (Y111F) = molecular target: T2, 3xFLAG-DYRK1A (Y111F) (UniProt Q13627-1 1-763, Y111F)
T2 construct: DYRK1A with the autophosphorylation site Tyr111 substituted to Phe; Expressed upstream of F2A-EGFP as m2

[1] = molecular target: T3, 3xFLAG-tagged kinase-dead mutant of DYRK1A (K188R) (UniProt Q13627-1 1-763, K188R)
T3 construct: DYRK1A with Lys188 substituted to Arg; Expressed upstream of F2A-EGFP as m2; also called K188R mutant

3xFLAG-DYRK1A (Y159F) = molecular target: T4, 3xFLAG-DYRK1A (Y159F) (UniProt Q13627-1 1-763, Y159F)
T4 construct: DYRK1A with the autophosphorylation site Tyr159 substituted to Phe; Expressed upstream of F2A-EGFP as m2

[2] = molecular target: T5, 3xFLAG-DYRK1A (Y319F/Y321F) (UniProt Q13627-1 1-763, Y319F | Y321F)
T5 construct: Expressed upstream of F2A-EGFP as m2; also called Y319F/Y321F mutant; DYRK1A mutant

[3] = molecular target: T6, 3xFLAG-DYRK1A (Y145F/Y147F) (UniProt Q13627-1 1-763, Y145F | Y147F)
T6 construct: DYRK1A with the autophosphorylation sites Tyr145 and Tyr147 substituted to Phe; Expressed upstream of F2A-EGFP as m2

B1: CDC37-nanoKAZ (natural protein, UniProt Q16543 1-378, looked up)
chain: MVDYSVWDHIEVSDDEDETHPNIDTASLFRWRHQARVERMEQFQKEKEELDRGCRECKRKVAECQRKLKELEVAEGGKAELERLQAEAQQLRKEERSWEQKLEEMRKKEKSMPWNVDTLSKDGFSKSMVNTKPEKTEEDSEEVREQKHKTFVEKYEKQIKHFGMLRRWDDSQKYLSDNVHLVCEETANYLVIWCIDLEVEEKCALMEQVAHQTIVMQFILELAKSLKVDPRACFRQFFTKIKTADRQYMEGFNDELEAFKERVRGRAKLRIEKAMKEYEEEERKKRLGPGGLDPVEVYESLPEELQKCFDVKDVQMLQDAISKMDPTDAKYHMQRCIDSGLWVPNSKASEAKEGEEAGPGDPLLEAVPKTGDEKDVSV
notes: Kinase-specific co-chaperone CDC37; also called CDC37 fused with nanoKAZ; source: 293T cells stably expressing CDC37-nanoKAZ (pCAGIPuro vector), in lysate; not shown: nanoKAZ (luciferase reporter), C-terminal, kept
For B1, the “fold stronger interaction than 3xFLAG-DYRK1A” value (3xFLAG-tagged DYRK4) was 102 fold, the “fold stronger interaction than intact DYRK1A” value (3xFLAG-DYRK1A (Y111F)) was 1.4 fold and the “fold stronger interaction than intact DYRK1A” value [1] was 17 fold. For the same binder, the “fold stronger interaction than intact DYRK1A” value (3xFLAG-DYRK1A (Y159F)) was 8.4 fold, the “fold stronger interaction than intact DYRK1A” value [2] was 8 fold and the “fold stronger interaction than intact DYRK1A” value [3] was 2.4 fold.

B2: nanoKAZ-HSP90β (natural protein)
chain: not shown
notes: HSP90β (HSP90AB1 gene product); Codon-optimized nanoKAZ (GenBank AB823628) fused to the amino-terminus of HSP90β; also called HSP90β fused with nanoKAZ; nanoKAZ-HSP90AB1; source: 293T cell line stably expressing nanoKAZ-HSP90β (pCAGIPuro vector), in lysate; not shown: nanoKAZ (luciferase reporter), N-terminal, kept
With B2 the “fold stronger interaction than intact DYRK1A” value [1] was 10 fold and the “fold stronger interaction than intact DYRK1A” value [2] was 3.8 fold.
